These results are taken from patent KR20120134547A.

Bridge positions count the residues as written; N and C are the ends. Ends that are not written are not given here.

For the experiment, the target named is TAB-XC154 자가면역항체. Put plainly: competition: XC154 antibody (100 ng) pre-incubated with 10^11 or 10^12 XC154p1 phage, then flow cytometry on HepG2 or LnCap-LN3 cells. On the technique in general: Flow cytometry measures light scatter and fluorescence of single cells or particles in a stream.

CLPSWFHRC (disulfide 1-9 (inferred); also: displayed on phage) [XC154p1 에피토프 발현 파아지 (…)] had a percent inhibition of more than 90%.
